Key:
[1] = molecular target: rat NPY Y5 receptor, clone Y861 (rat); experiment: competition with [125I]PYY, membranes of transfected COS-7 cells
Rat Y1 (clone) (rat) = Rat Y1 (clone) (rat) (UniProt P21555); experiment: competition with [125I]PYY on the rat Y1 clone
Rat Y2 (clone) (rat) = experiment: competition with [125I]PYY on the rat Y2 clone
[2] = molecular target: rat NPY Y5 receptor, clone Y217.24.13.6B (rat); experiment: competition with [125I]PYY, membranes of transfected COS-7 cells; second individual value in brackets
[3] = molecular target: rat NPY Y5 receptor, clone Y217.24.13.6B (rat); experiment: competition with [125I]PYY, membranes of transfected COS-7 cells; first individual value in brackets
[4] = molecular target: rat NPY Y5 receptor, clone Y555 (rat); experiment: competition with [125I]PYY, membranes of transfected COS-7 cells; average of two experiments
[5] = molecular target: rat NPY Y5 receptor, clone Y555 (rat); experiment: competition with [125I]PYY, membranes of transfected COS-7 cells; second individual value in brackets
[6] = molecular target: rat NPY Y5 receptor, clone Y555 (rat); experiment: competition with [125I]PYY, membranes of transfected COS-7 cells; first individual value in brackets
Rat Y4/PP1 (clone) (rat) = Rat Y4/PP1 (clone) (rat) (UniProt Q63447); experiment: competition with rat [125I]PP on the rat Y4/PP1 clone
Chain of Rat Y4/PP1 (clone) (rat) (Q63447 whole entry): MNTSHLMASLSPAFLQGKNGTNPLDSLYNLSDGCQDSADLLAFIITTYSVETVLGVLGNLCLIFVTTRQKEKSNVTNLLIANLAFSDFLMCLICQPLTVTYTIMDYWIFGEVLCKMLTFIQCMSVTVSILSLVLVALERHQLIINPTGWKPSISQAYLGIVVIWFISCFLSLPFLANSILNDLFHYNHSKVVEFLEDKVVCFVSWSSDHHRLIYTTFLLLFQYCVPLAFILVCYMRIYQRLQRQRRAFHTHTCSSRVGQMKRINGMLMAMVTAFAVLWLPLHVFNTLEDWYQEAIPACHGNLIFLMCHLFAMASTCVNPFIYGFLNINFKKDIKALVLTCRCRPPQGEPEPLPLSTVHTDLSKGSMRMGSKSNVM

| IC50 (Rat Y1 (clone) (rat)) [nM] | IC50 (Rat Y2 (clone) (rat)) [nM] | Substance | further results |
| --- | --- | --- | --- |
| > 1000 | > 1000 | (1-24)NPY (peptide) | IC50 [1]: > 1000 nM |
| – | – | h(Leu^31 Pro^34)PYY (from UniProt P10082) (peptide) | IC50 [1]: 2 nM; IC50 [2]: 0.69 nM; IC50 [3]: 0.65 nM |
| – | 1.3 | p(13-36)NPY (from UniProt P01304) (peptide) | – |
| 0.15 | 150 | p(Leu^31 Pro^34)NPY (from UniProt P01304) (peptide) | – |
| – | 0.5 | r/h(2-36)NPY (from UniProt P01303) (peptide) | – |
| – | 0.42 | r/h(10-36)NPY (from UniProt P01303) (peptide) | – |
| > 1000 | – | r/h(32D-Trp)NPY (from UniProt P01303) (peptide) | IC50 [1]: 7 nM |
| – | – | r/h(LP)NPY (from UniProt P01303) (peptide) | IC50 [4]: 0.96 nM; IC50 [5]: 0.92 nM; IC50 [6]: 1 nM |
| 44 | 154 | r/h(Leu^31 Pro^34)(3-36)NPY (from UniProt P01303) (peptide) | – |
| – | 0.24 | r/hNPY (from UniProt P01303) (peptide) | – |
| – | – | r/hNPY, P01303 (peptide; other documents disagree on this pair) | IC50 (Rat Y4/PP1 (clone) (rat)): > 1000 nM |
| – | > 1000 | rPP (from UniProt P06303) (peptide) | – |
| – | 0.079 | rPYY (from UniProt P10631) (peptide) | – |

Source: US5919901
